# Measured values taken from the nanobody polyreactivity screen of Harvey et al. (2022).
# Test: yeast display, Sf9 membrane polyspecificity reagent, FACS + sequencing; frameworks hold sequencing errors
# Summary of the method: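 Using colony PCR, genes from sorted yeast display clones were amplified, then sequenced on MiSeq at 2 × 250 and filtered by CDR length. The clones had been stained with 10% biotinylated, detergent-solubilized Sf9 membrane reagent for 1 hour at 4 °C and sorted by FACS into low and high (top ~1%) gates on anti-HA and streptavidin fluorescence. Polyreactivity labels come from the gate of origin.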
row,Sequence,polyreactivity (PSR sort gate)
1,QVQLVESGGGLVQAGVSLRLSCAASGRTLRRTAMGWYRQAPGTERELVAAISSIGGSTYYADSVKGRFTISRDNAKITVYLQMNSLKPEDTAVYYCAADILIYPYSYDYYWGQGTQVTVSS,high polyreactivity
2,HVQLGESGGGLVQAGGSLRLSCAASGRISVFYTMGGYRQAPGKEREMVAVIRTSGGRTNYADSVKGRFTISRDNAKNTVYLQMNSLKPEDTAVYYCAARVVRYGYKYYYWGQGTQVTVSS,low polyreactivity
3,QVQLVESGGGLVQAGGSLRLSCAASGGSFYNYPMGWYRQAPGKERELVAAITYSGVRTNYADSVKGRFTISRDNAKNTVYLQMNSLKPEDTAVYYCAADGLSNVRQMDYWGQGTQVTVSS,low polyreactivity
4,QVQLVESGGGLVQAGGSLRLSCAASGRIFLYYAMGWYRQAPGKERELVAAISSGGSTYYADSVKGRFTISRDNAKNTVYLQMNSLKPEDTAVYYCATPSGRWGHYGYWGQGTQVTVSS,low polyreactivity
5,QVQLVESGGGLVQAGGSLRLSCAASGRTFRINAMGWYRQAPGKERELVAAINDGGDTYADSVKGRFTISRDNAKNTVYLQMNSLKPEDTAVYYCAVRILTNRWYYGYWGQGTQVTVSS,low polyreactivity
6,QVQLVESGGGLVQAGGSLRLSCAASGSIFYSYMGWYRQAPGKERECVAAINQRGSSTYYADSVKGRFTISRDNAKNTVYLQMNSLKPEDTAVYDCAAVFFGVYTSRRYYWGQGTQVTVSS,high polyreactivity
7,QVQLVESGGGLVQAGGSLRLSCAASGSIFTPYAMGWYRQAPGTEREFVAVISWRVDSTYYADSVKGRFTISRDNAKNTVYLQMNSLKPEDTAVYYCAAKSYLLAPFGSGNRWSRYDYWGQGTQVTVSS,high polyreactivity
8,QVQLEESGGGLVQAGGSLRLSCAASGSILRVNVMVWYRQAPGKERELVAAITSGGRTYYADSVKGRFTISRDNAKNTVYLQMNSLIQEDTAVYYCAAKFFRNTYSYGMDYWGQGTQVTVSS,high polyreactivity
9,QVQLVESGGGLVQAGGSLRLSCAASGFTFRLYAMGWYRQAPGKERELVAAISWGGGSTYYADSVKGRFTISRDNAKNTLYLQMNSLKPEDTAVYYCAAYKYGYRYYYWGQGTLVTVSS,high polyreactivity
10,QVQLVESGGGLVQAGGSLRLSCAASGRIFSRYAMGWYRQAPGKERELVAAITRGGSTYADSVKGRFTISRDNAKNTVYLQMNSLKPEDTAVYYCATPIYSSYYRYSSGYGYDYWGQGTQVTVSS,high polyreactivity
11,QVQLVESGGGLVQAGGSLRLSCAASGSTLTYNAMGWYRQAPGKERELVAVISARGGRTYYADSVKGRFTISRDNAKNTVYLQMNSLKPEDTAVYYCAAVFYYSYYRITSGDYWGQGTQVTVSS,high polyreactivity
12,QVQLVESGGGLVQAGGSLRLSCAASGSTFKSYAMGWYRQAPGKERELVAAITHRGSTYYADSVKGRFTTSRDNAKNTVYLQMNSLKPEDTAVYYCNVRRIGNGRRVDYWGQGTQVTVSS,high polyreactivity
13,QVQLVESGGGLVQAGGSLRLSCAASGGTFFGYAMGWYRQAPGKERELVAAISGSGGRTYYADSVKARFTISRDNAKNTVYLQMNSLKPEDTAVYYCAADATHETYYPFYYWGQGTQVTVSS,high polyreactivity
14,QVQLVESGGGLVQAGGSLRLSCAASGRIFYYYDMGWYRQAPGKERELVAGINDDSSTYYADSVKGRFTISRDNAKNTVYLQMNSLKPEDTAVYYCNAGPSWYPSWYYYWGQGTQVTVSS,low polyreactivity
15,QVQIVESGGGLVQAGGSLRLSCASYGFTFWGYTMGWYRQAPGKERELVAAITSNGSTYYADSVKGRFTISRDNAQNTVYLQMNSLKPEDTAVYYCAATRGSSEYFYWGQGSQVTVSS,low polyreactivity
16,QVQLVESGGGLVQAGGSLRLSCAASGRTFYAYAMGWYRQAPGKERELVSAISWRGGDTYYADSVKGRFTISRDYAKNTVYLQMHSLIPEDTAFYYCAADFTYTWDAAQGYDYWGQGPQVTVSS,low polyreactivity
